Reference: patent US20160003835, “APTAMERS AND USES THEREOF” (CARIS LIFE SCIENCES SWITZERLAND HOLDINGS S.A.R.L., published 2016)

Columns and labels:
EpCAM [1] = target: T1, EpCAM (UniProt P16422 P16422:24-265); assay: SPR; immobilized biotinylated aptamer, HBS-EP+ buffer, global fit; conditions: label: biotin
T1 sequence: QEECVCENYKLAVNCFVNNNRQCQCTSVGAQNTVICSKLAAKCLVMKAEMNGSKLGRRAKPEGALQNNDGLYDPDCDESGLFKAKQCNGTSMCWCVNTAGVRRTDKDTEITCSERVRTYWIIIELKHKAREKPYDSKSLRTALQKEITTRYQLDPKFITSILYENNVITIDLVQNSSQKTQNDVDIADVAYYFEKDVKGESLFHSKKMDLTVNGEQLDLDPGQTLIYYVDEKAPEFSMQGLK

EpCAM [2] = target: T1, EpCAM; assay: as above; conditions: label: biotin; remark: listed apart in the source
Method: FIG. 4 illustrates results from a binding assay showing the binding affinity of an exemplary aptamer (Aptamer ID BTX176881 (SEQ ID NO. 98883)) to the target EpCAM protein at various target concentrations. The aptamer to be tested is fixed to a substrate using a biotin tail and is incubated with various concentrations of target (125, 250 and 500 nM). The test is performed on a surface plasmon resonance machine (SPR). The SPR machine detects association and disassociation of the aptamer and the target. Target is applied until the association and disassociation events are equal, resulting in a plateau of the curve. The equations describing the curve at each concentration can then be used to calculate the KD of the aptamer (see Table 5).
The Biacore 200 control software is programmed with the following conditions: Solution: HBS-EP+Buffer; Number of cycles: 3; Contact time: 120s; Flow rate: 30 μl/min; Dissociation time: 300s; Solution: Glycine-HCl pH 2.5; Contact time: 120s; Flow rate: 20 μl/min; Stabilization period: Os. The binding affinities of these aptamers are then measured using the SPR assay above, or an alternate in vitro assay assessing the aptamer for a desired function.

PSMA (FOLH1/NAALADase I) = PSMA (FOLH1/NAALADase I) (UniProt Q04609 Q04609:44-750); assay: ELONA; ELISA against recombinant PSMA, values only in figure; conditions: label: biotin
PSMA (FOLH1/NAALADase I), sequence (Q04609 44-750, one chain of several): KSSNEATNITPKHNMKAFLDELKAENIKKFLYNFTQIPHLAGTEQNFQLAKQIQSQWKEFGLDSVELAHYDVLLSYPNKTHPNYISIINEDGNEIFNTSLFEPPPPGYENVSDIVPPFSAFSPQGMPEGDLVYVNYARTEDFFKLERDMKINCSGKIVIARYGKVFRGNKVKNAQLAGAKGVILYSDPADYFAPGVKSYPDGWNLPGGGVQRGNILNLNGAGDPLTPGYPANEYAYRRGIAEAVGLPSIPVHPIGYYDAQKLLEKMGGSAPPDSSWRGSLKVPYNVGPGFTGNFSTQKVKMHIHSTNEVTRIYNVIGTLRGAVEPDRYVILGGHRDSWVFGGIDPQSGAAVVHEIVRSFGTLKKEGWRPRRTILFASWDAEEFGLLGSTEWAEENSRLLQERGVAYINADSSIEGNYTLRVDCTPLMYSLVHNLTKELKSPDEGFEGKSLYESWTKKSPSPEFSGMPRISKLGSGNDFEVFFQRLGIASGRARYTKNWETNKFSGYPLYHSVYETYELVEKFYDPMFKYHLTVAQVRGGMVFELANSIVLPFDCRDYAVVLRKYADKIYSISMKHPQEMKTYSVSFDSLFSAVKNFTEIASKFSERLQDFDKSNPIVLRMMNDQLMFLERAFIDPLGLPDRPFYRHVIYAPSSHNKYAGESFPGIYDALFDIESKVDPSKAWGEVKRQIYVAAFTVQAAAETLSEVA

EpCAM [3] = target: T1, EpCAM; assay: bead fluorescence assay, anti-His beads; improved by 1 mM MgCl2 in 25 mM HEPES; lower affinity than Aptamer 4; conditions: tags: His tag; label: biotin / SA-PE
Method: Purified CAR003 aptamer was tested for binding to recombinant EPCAM protein with a polyhistidine tag (“His tagged”) using the following internally developed assay. Anti-His tag conjugated beads were mixed with EPCAM-His tagged protein. The aptamer to be tested was labeled with streptavidin-phycoerythrin (SA-PE). The EpCAM-beads and SA-PE labeled aptamers were mixed. Binding was determined as median flourescent value in a bead assay as described herein. MFI values (FIG. 20E-F) increase with increased binding of the SA-PE labeled aptamer to the recombinant EpCAM. FIGS. 20E-F illustrate binding of CAR003 to EPCAM protein in 25 mM HEPES with PBS-BN (PBS, 1% BSA, 0.05% Azide, pH 7.4) (FIG. 20E) or in 25 mM HEPES with 1 mM MgCl₂ (FIG. 20F). EPCAM aptamer Aptamer 4 (see above) was used for comparison. As shown in the figures, CAR003 pool 3 more efficiently binds its target in the presence of MgCl₂ (FIG. 20F) than in the presence of BSA (FIG. 20E).
CAR003 affinity to EpCAM in the bead assay environment was assessed in the same assay as above with aptamer titrated across a constant input of antigen. FIG. 20I illustrates titration of aptamers against EPCAM recombinant protein (constant input 5 μg).

EpCAM [4] = target: T1, EpCAM; assay: ELONA; standard ELISA plate; conditions: tags: Fc fusion; label: biotin

CTGTGAGGCGTACTGCGGTGAGCCTCTCATTA (ssDNA, 3' tail of 6 thymines and biotin) [BTX187269] gave a Kd (EpCAM [1]) of 7.12 nM.

Binder CCGCGCAGATATACAACGTACCTCTGTGCGCA (ssDNA, 3' tail of 6 thymines and biotin) [BTX176881] has a Kd (EpCAM [2]) of 8.4 nM.

B1: CAR051 (ssDNA)
DNA: ACTAAGCCACCGTGTCCAGCCCTATTCCCTCGCTTTCTCCCCTTTTGTTGCTGCGTCACTCTGGAT
modifications: 5' biotin
B1: binds (PSMA (FOLH1/NAALADase I)).

CCCCCCGAATCACATGACTTGGGCGGGGGTCG (ssDNA, 3' tail of 6 thymines and biotin) [Aptamer 4] was tested, and the Kd (EpCAM [1]) was 10.1 nM.

B2: CAR003 (ssDNA)
DNA: ATCCAGAGTGACGCAGCAGTCTTTTCTGATGGACACGTGGTGGTCTAGTATCTGGACACGGTGGCTTAGT
modifications: 3' biotin (CAR003.2_3'-B, same bases as SEQ 230823)
B2: binds (EpCAM [3]).

B3: CAR016 (ssDNA)
DNA: ACTAAGCCACCGTGTCCAACGTAAGTATATCTGTACAATGCTGCGTCACTCTGGAT
modifications: 5' biotin
B3: binds (EpCAM [4]).

B4: CAR050 (ssDNA)
DNA: ACTAAGCCACCGTGTCCACCCCCCTCTGTCTCTTGTTTCTCTTTTCTATGCTGCGTCACTCTGGAT
modifications: 5' biotin
B4: binds (PSMA (FOLH1/NAALADase I)).
